Experimental data as given in US20160046728.

Tested on: Ir-CPI (Ixodes ricinus Contact Phase Inhibitor), recombinant

| Substance | amidolytic activity on chromogenic substrate (protease:Ir-CPI 1:5) | activation of factor XII into factor XIIa by factor XIa (reconstituted system, purified factors, chromogenic substrate) | activation of factor XII into factor XIIa by kallikrein (reconstituted system, purified factors, chromogenic substrate) |
| --- | --- | --- | --- |
| thrombin | The results obtained did not show any effect of Ir-CPI protein on the amidolytic activity of these factors |  |  |
| factor XIa | The results obtained did not show any effect of Ir-CPI protein on the amidolytic activity of these factors | Ir-CPI inhibits ... the activation of factor XII into factor XIIa by factor XIa |  |
| factor IXa | The results obtained did not show any effect of Ir-CPI protein on the amidolytic activity of these factors |  |  |
| plasma kallikrein | The results obtained did not show any effect of Ir-CPI protein on the amidolytic activity of these factors |  | Ir-CPI did not inhibit the activation of factor XII into factor XIIa by kallikrein |
